Data: PMC11799418

Assays:
Endophilin B1 (human) [1] = target: Endophilin B1 (human) (UniProt Q9Y371); assay: cryo-EM structure; endophilin B1 incubated with MSP2N2 nanodiscs at molar ratio 1:2 (MSP2N2:endophilin B1); cryo-EM data split into 2 classes
Endophilin B1 (human) [2] = target: Endophilin B1 (human) (UniProt Q9Y371); assay: cryo-EM structure; endophilin B1 incubated with His6-MSP2N2 nanodiscs (90% DOPS, 10% 14:0 cardiolipin), molar ratio 1:10 (MSP2N2:endophilin B1), SEC peak vitrified; single-particle reconstruction of membrane-bound endophilin B1 on bicelles, cryoSPARC and cryoDRGN
Endophilin B1 (human) [3] = target: Endophilin B1 (human) (UniProt Q9Y371); assay: SAXS; in solution, 8 and 16 μM endophilin B1 (0.34 and 0.69 mg/ml); 150 mM NaCl, 20 mM HEPES, 1 mM TCEP, 0.5 mM DTT, pH 8.1, 4 °C; monomer to dimer

Q: “Endophilin B1 (from UniProt Q9Y371 1-365) (natural protein)” was tested. Which stoichiometry N (Endophilin B1 (human) [1]) did it give?
A: 2

Q: And the dimers bound per bicelle (Endophilin B1 (human) [2])?
A: 6 dimers

Q: What about the stoichiometry N (Endophilin B1 (human) [3]) of the same substance?
A: 2
